This is an account of results in the supplement of paper PMC10065799, “High-throughput profiling of sequence recognition by tyrosine kinases and SH2 domains using bacterial peptide display” (eLife, 2023).

One series concerns AncSZ. Kind of series: phosphorylation enrichment, bacterial display (enrichment ratio); higher = better substrate or ligand; peptides without Tyr show the background.
A further series concerns the target EPHB1 (UniProt P54762). The series is described as above.
Another series concerns the target EPHB2 (UniProt P29323). The series is described as above.
A further series deals with FGFR1 (UniProt P11362). The description is as above.
For the next series, the target named is FGFR3 (UniProt P22607). The series is described as above.
Another series concerns Fer (mouse). The series is described as above.
A further series concerns the target Fes (UniProt P07332). Described as above.
The target in a further series is Fyn (UniProt P06241). The description is as above.
In a further series the target is Hck (UniProt P08631). The series is described as above.
A further series addresses Jak2 (UniProt O60674). The series is described as above.
The target in a further series is MERTK (UniProt Q12866). The description is as above.
The next series deals with c-Abl (mouse). The description is as above.
The next series deals with c-Src. The description is as above.
The target of a further series is Grb2 SH2 (UniProt P62993). Kind of series: SH2 binding enrichment of the phosphorylated peptide, bacterial display (enrichment ratio); higher = better substrate or ligand; peptides without Tyr show the background.
The target in another series is SHP2-C SH2. Described as above.
Another series concerns the target c-Src SH2. Described as above.
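For SH2 binding enrichment of the phosphorylated peptide, bacterial display in this document: peptide library displayed on the E. coli surface as eCPX fusions, selected cells deep-sequenced, score is each peptide's frequency after selection divided by its frequency in the input.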
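For phosphorylation enrichment, bacterial display in this document: 11-residue human phosphosite peptides and single-mutation variants displayed on the E. coli surface, counted by deep sequencing, each peptide's frequency after selection divided by its frequency in the unselected input library; frequency after pTyr selection over input frequency; kinase dosed for 20-30% of maximal phosphorylation in three min.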

MERTK, sequence (Q12866 whole entry, looked up): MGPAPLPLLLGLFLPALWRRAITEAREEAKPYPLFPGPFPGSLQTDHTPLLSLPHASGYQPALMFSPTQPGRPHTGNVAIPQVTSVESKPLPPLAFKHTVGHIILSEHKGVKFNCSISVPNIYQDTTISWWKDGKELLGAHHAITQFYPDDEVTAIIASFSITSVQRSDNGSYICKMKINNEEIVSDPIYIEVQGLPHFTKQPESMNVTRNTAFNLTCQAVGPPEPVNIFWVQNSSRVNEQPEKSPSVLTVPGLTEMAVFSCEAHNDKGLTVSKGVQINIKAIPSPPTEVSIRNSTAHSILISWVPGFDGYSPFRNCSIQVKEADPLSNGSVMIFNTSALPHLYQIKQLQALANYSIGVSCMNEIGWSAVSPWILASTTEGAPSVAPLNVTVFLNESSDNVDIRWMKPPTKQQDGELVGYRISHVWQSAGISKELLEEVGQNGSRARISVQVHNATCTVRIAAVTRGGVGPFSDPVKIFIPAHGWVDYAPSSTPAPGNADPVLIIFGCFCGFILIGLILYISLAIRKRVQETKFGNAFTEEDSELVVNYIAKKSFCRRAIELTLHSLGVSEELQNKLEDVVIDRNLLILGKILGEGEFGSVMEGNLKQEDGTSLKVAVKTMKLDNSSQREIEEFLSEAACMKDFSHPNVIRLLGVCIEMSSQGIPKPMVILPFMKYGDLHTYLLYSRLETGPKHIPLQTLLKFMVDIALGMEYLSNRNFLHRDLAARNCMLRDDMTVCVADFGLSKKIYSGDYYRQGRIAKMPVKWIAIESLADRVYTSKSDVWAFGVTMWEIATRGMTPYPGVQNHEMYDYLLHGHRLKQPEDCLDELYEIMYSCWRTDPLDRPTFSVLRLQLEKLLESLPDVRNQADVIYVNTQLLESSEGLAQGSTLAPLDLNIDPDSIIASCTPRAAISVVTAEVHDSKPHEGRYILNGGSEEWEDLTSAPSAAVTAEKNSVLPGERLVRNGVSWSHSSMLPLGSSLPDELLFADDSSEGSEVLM
Fyn, sequence (P06241 whole entry, looked up): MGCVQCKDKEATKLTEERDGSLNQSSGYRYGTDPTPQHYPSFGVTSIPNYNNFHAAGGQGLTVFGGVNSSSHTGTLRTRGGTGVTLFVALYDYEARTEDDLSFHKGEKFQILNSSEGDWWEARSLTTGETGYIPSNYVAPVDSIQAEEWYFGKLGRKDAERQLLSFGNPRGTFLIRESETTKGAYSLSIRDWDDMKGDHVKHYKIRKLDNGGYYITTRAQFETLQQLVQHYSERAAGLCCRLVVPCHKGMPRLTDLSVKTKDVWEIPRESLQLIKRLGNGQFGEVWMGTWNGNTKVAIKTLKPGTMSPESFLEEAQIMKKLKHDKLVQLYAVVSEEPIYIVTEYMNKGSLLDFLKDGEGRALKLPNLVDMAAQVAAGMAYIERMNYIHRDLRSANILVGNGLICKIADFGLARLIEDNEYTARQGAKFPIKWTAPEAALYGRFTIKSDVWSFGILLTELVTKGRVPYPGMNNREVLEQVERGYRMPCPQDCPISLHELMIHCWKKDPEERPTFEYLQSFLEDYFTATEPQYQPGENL
EPHB1, sequence (P54762 whole entry, looked up): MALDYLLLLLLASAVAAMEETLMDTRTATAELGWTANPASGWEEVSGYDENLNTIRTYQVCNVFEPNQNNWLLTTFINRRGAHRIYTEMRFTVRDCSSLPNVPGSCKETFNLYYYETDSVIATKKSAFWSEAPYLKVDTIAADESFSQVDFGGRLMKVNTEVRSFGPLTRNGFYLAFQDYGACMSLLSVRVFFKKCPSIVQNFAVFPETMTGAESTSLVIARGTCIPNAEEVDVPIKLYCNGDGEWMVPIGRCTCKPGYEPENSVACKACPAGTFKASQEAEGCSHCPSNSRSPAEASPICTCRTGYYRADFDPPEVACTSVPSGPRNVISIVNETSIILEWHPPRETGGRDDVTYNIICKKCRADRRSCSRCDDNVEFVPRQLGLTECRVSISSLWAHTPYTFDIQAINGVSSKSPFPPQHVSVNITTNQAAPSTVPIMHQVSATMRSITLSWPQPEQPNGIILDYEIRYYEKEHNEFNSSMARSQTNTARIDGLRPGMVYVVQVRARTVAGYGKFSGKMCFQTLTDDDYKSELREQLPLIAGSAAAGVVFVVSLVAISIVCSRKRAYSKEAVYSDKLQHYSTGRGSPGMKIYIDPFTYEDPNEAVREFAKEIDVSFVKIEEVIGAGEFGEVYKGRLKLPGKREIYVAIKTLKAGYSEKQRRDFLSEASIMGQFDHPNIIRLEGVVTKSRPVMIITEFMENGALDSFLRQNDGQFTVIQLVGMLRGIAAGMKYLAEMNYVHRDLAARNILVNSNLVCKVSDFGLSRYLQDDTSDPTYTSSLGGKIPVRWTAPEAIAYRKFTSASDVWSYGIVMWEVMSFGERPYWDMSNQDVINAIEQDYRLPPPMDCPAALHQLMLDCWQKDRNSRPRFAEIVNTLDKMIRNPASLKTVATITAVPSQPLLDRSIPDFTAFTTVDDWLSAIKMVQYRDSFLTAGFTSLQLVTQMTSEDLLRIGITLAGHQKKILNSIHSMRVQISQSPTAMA
Hck, sequence (P08631 whole entry, looked up): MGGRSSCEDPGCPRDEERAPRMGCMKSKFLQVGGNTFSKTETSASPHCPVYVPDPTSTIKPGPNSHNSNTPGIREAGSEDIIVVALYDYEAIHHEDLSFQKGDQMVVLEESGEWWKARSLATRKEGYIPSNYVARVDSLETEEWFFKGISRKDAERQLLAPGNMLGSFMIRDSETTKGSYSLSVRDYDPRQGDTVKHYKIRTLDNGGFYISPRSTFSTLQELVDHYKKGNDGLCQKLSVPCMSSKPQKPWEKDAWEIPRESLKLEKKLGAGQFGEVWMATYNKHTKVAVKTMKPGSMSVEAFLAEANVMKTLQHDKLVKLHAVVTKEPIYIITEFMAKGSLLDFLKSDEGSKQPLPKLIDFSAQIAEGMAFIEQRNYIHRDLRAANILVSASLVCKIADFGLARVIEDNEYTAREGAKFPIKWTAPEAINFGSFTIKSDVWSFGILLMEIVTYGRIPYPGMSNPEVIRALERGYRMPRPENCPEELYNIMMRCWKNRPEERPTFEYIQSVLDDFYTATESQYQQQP
Fes, sequence (P07332 whole entry, looked up): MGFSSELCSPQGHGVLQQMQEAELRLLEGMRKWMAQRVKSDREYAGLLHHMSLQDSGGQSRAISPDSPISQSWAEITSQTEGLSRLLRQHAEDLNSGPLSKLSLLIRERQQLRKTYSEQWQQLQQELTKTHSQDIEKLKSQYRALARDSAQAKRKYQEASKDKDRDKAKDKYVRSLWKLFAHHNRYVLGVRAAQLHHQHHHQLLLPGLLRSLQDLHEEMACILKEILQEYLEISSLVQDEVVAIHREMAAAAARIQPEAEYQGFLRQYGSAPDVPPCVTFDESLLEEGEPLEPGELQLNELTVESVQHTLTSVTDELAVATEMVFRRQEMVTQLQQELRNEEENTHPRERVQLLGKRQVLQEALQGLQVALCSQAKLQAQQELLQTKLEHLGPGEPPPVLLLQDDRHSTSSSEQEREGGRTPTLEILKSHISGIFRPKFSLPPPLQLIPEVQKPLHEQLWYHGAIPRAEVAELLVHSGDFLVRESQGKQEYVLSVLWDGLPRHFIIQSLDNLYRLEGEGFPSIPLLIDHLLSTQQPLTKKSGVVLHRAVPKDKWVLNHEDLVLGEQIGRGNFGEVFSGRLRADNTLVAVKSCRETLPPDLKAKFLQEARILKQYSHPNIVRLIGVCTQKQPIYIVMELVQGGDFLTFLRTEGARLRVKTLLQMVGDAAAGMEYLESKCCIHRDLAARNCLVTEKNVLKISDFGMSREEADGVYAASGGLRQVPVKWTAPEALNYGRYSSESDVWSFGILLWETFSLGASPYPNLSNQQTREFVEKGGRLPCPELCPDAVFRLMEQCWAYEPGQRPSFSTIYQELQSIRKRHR
EPHB2, sequence (P29323 whole entry, looked up): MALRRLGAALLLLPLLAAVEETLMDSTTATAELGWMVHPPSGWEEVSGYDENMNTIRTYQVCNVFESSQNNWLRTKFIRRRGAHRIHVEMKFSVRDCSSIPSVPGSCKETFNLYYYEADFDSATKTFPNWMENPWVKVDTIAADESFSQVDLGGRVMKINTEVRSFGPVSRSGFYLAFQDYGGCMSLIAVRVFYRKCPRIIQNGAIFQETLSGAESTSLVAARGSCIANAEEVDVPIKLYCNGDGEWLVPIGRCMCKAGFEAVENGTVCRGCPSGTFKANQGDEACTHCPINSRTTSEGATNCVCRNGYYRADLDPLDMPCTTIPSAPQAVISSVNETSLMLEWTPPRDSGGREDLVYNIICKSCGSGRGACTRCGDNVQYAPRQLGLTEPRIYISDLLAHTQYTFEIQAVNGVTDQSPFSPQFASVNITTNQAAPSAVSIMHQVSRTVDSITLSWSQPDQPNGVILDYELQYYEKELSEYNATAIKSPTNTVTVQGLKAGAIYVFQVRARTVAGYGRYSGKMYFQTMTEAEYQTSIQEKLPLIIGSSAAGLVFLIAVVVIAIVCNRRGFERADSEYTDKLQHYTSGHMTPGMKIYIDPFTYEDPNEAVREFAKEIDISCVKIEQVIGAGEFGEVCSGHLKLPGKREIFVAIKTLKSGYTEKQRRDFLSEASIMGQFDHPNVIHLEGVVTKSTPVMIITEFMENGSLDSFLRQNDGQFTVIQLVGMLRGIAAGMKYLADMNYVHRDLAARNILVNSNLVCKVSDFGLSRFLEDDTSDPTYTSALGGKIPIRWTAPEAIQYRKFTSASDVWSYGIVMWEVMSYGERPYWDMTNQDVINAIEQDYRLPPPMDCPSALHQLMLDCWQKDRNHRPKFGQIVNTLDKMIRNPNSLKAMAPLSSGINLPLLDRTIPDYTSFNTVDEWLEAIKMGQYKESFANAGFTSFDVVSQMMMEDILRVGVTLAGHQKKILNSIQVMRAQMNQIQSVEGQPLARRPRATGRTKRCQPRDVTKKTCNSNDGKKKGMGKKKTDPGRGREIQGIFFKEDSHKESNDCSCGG

For the sequence ISKKHYAGLLF [POLD1_Y809_R808H], the phosphorylation enrichment in the series on AncSZ was found to be 0.545; with EPHB1, 0.317; with EPHB2, 0.381; with FGFR1, 0.468; with FGFR3, 0.643; with Fer (mouse), 0.469. The phosphorylation enrichment with Fes came to 0.671; with Fyn, 0.42; with Hck it was 0.46; with Jak2, 0.636; with MERTK, 0.456; in the series on c-Abl (mouse), 0.521. Moreover, in the series on c-Src, the phosphorylation enrichment was found to be 0.436. Besides, the values for the SH2 binding enrichment with Grb2 SH2, with SHP2-C SH2 and in the series with c-Src SH2 were 1.22, 12.4 and 2.04, respectively.
As for ITLPIYTKGSE [ANK2_Y1455_E1458G], the phosphorylation enrichment with AncSZ is 0.63; with EPHB1, 0.599; in the series with EPHB2, 0.478; in the series with FGFR1, 0.392; with FGFR3, 0.502; with Fer (mouse), 0.451. Moreover, the phosphorylation enrichment with Fes was determined as 0.759; in the series with Fyn, 0.581; with Hck, 0.645; in the series with Jak2, 0.571; with MERTK, 0.481; in the series with c-Abl (mouse) it was 0.446. Further, in the series on c-Src, the phosphorylation enrichment is 0.529. The SH2 binding enrichment came out at 0.78 with Grb2 SH2, 0.715 with SHP2-C SH2 and 0.392 with c-Src SH2.
Regarding ITRDIYETDFF [INSR_Y1185_M1180I_YF], the phosphorylation enrichment turned out to be 1.44 in the series on AncSZ; 0.803 with EPHB1; 0.711 in the series with EPHB2; 0.539 in the series with FGFR1; 0.738 with FGFR3; 0.983 in the series with Fer (mouse). For the same sequence, the phosphorylation enrichment is 1.25 with Fes; 1.46 with Fyn; 1.12 with Hck; 1.16 with Jak2; 1.26 in the series with MERTK; 0.698 in the series with c-Abl (mouse). Besides, the phosphorylation enrichment in the series with c-Src turned out to be 1.75. Besides, the SH2 binding enrichment with Grb2 SH2 was 0.83; with SHP2-C SH2, 0.485; in the series with c-Src SH2, 1.12.
For ITVPAYFNDLQ [HSPA9_Y196_S200L], the phosphorylation enrichment in the series with AncSZ was found to be 1.13; with EPHB1 it was 0.705; in the series with EPHB2 it was 0.495; with FGFR1 it was 0.555; with FGFR3, 0.77; with Fer (mouse), 0.524. Further, the phosphorylation enrichment is 1.3 with Fes; 0.452 with Fyn; 0.538 in the series with Hck; 1.15 with Jak2; 0.431 with MERTK; 0.766 in the series on c-Abl (mouse). Further, the phosphorylation enrichment in the series with c-Src turned out to be 0.468. Besides, the SH2 binding enrichment is 1.15 with Grb2 SH2, 0.722 with SHP2-C SH2 and 0.583 in the series with c-Src SH2.
Turning to IVGRLYRLLTE [SETX_Y1978_L1976R], the phosphorylation enrichment with AncSZ turned out to be 1.1; in the series with EPHB1, 0.481; with EPHB2, 0.494; in the series with FGFR1, 0.418; in the series with FGFR3, 0.644; in the series on Fer (mouse), 0.37. Moreover, the phosphorylation enrichment in the series with Fes came to 1.12; with Fyn, 0.376; with Hck, 0.387; with Jak2, 0.954; with MERTK, 0.396; with c-Abl (mouse), 0.676. Besides, the phosphorylation enrichment in the series on c-Src was found to be 0.331. Further, the SH2 binding enrichment in the series with Grb2 SH2 stood at 1.05; in the series with SHP2-C SH2, 0.734; with c-Src SH2, 0.738.
Regarding IVLRSYPASGH [NID2_Y449], the phosphorylation enrichment with AncSZ was determined as 0.726; in the series with EPHB1, 0.532; with EPHB2, 0.451; with FGFR1 it was 0.392; in the series with FGFR3, 0.596; in the series on Fer (mouse) it was 0.479. For the same sequence, the phosphorylation enrichment turned out to be 0.817 in the series with Fes; 0.481 in the series with Fyn; 0.415 in the series with Hck; 0.682 in the series with Jak2; 0.493 with MERTK; 0.511 with c-Abl (mouse). Further, in the series on c-Src, the phosphorylation enrichment was 0.415. The SH2 binding enrichment with Grb2 SH2 amounted to 0.716; in the series with SHP2-C SH2, 0.831; with c-Src SH2 it was 0.533.
As to IVRSLYEDVED [VHL_Y185_L188V], the phosphorylation enrichment in the series on AncSZ was 1.3; in the series with EPHB1 it was 0.611; with EPHB2, 0.701; with FGFR1, 0.502; with FGFR3, 0.674; in the series with Fer (mouse), 1.69. Also, the phosphorylation enrichment with Fes turned out to be 1.26; with Fyn, 0.488; with Hck it was 0.526; with Jak2, 1.21; with MERTK it was 0.458; with c-Abl (mouse), 0.834. Further, in the series on c-Src, the phosphorylation enrichment was determined as 0.51. In addition, the SH2 binding enrichment in the series with Grb2 SH2 worked out at 0.937; with SHP2-C SH2 it was 0.63; with c-Src SH2, 11.8.
As for IVRSRYEDLED [VHL_Y185_L184R], the phosphorylation enrichment in the series with AncSZ is 1.37; with EPHB1, 0.675; with EPHB2, 0.759; in the series with FGFR1, 0.664; in the series with FGFR3, 0.704; in the series with Fer (mouse), 0.619. Also, the phosphorylation enrichment in the series with Fes was determined as 0.946; in the series with Fyn it was 0.693; with Hck, 0.651; in the series with Jak2, 0.964; with MERTK, 0.788; in the series on c-Abl (mouse), 0.968. In addition, in the series on c-Src, the phosphorylation enrichment came out at 0.585. In addition, the values for the SH2 binding enrichment with Grb2 SH2, in the series with SHP2-C SH2 and with c-Src SH2 were 0.897, 0.602 and 0.413, respectively.
